# Results published in PMC7532188.
# Biological target: His-tagged TASOR(354–633), tandem SPOC-DomI construct (human) (UniProt Q9UK61)
# Test: SEC-MALS; complex co-expressed in E. coli and purified by Ni-affinity; Superdex 200 (10/300), 293 K, 20 mM HEPES pH 7.5, 0.5 M NaCl, 0.5 mM TCEP
# Chain of UniProt Q9UK61 (Q9UK61 354-633): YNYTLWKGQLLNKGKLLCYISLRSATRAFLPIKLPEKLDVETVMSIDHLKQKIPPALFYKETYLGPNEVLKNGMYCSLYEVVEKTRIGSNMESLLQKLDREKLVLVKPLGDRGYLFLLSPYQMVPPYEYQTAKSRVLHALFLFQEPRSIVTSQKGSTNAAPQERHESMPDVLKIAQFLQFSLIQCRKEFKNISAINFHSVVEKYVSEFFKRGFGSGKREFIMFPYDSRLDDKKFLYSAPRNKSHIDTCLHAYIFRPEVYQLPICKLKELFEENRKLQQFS
substance,measurement,value
MPP8 C-terminus (residues 528–860) (from UniProt Q99549-1 528-860) (domain or fragment),stoichiometry N,1
